# Measured values as given in patent US20150266975, “RNA-SPECIFIC BINDING ANTIBODY” (Korea Advanced Institute of Science and Technology, published 2015).
# T1: MabBC200-A3 (Homo sapiens)
# T1 chain 1: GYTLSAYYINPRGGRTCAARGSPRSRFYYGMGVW
# T1 chain 2: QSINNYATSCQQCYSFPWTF
# B1: RNA (51-120) (ssRNA)
# RNA: GGGAGGCGGGAGGAUAGCUUGAGCCCAGGAGUUCGAGACCUGCCUGGGCAAUAUAGCGAGACCCCGUUCUCCC
# Target: T1, MabBC200-A3
# Assay: filter; room temperature
# Settings: hairpin with internal loops
binder,measurement,value
B1,Kd,~10 nM
